Measured values from patent publication US20210332123A1 (SUZHOU KANOVA BIOPHARMACEUTICAL, published 2021).
Numbering of substitutions follows the chain as printed. Each block holds one binder with its values, some of them ahead of it.

Experiments:
human IL-17B = target: T1, human IL-17B (human, UniProt Q9UHF5 21-180); assay: ELISA (FIG. 4)
T1 sequence (looked up): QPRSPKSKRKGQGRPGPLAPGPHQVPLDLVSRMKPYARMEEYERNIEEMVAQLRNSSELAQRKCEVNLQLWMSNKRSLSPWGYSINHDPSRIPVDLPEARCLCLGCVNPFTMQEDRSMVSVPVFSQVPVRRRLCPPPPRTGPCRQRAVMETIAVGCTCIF
Experimental: (§1) MaxiSorp 96-well plates (NUNC #449824, www.thermofisher.com) were coated with 2 μg/ml human IL-17A (Cell Signaling #89285F, www.cellsignal.com), human IL-17F (Cell Signaling #8906LC, www.cellsignal.com), human IL-17B (Peprotech #200-28, www.peprotech.com), human IL-17C (R&D systems #1234-IL-025/CF, www.rndsystems.com), human IL-17D ((Peprotech #200-27, www.peprotech.com), human IL-17E (R&D systems #1258-IL-025/CF, www.rndsystems.com) in 1×PBS (50 μl/well) respectively. Plates were incubated at 4° C. overnight. Coating solution was removed and plates were washed once with 200 μl/well PBST (1×PBS with 0.05% tween-20). Then 200 μl/well blocking buffer (1×PBS with 0.05% tween-20, 3% BSA) was added and incubated at room temperature for 1 hour. Blocking buffer was removed and plates were washed three times with 200 μl/well PBST (1×PBS with 0.05% tween-20). The anti-IL-25 antibodies (produced in Example 2), were diluted to 10, 3.33, 1.11, 0.37, 0.123, 0.041, 0.0137, 0.0046, 0.0015, 0.00031, 0.000102, 0.000034 μg/ml by 1×PBS and added to the plates (50 μl/well). Plates were incubated at room temperature for 2 hours. Antibodies in the wells were removed and plates were washed three times with 200 μl/well PBST (1×PBS with 0.05% tween-20) each time. Goat anti-human IgG(H&L)-HRP secondary antibody (Jackson Immuno Research #109-035-088, www.jacksonimmuno.com) was diluted 1:5000 in 1×PBS and added to each well (50 μl/well). Plates were incubated at room temperature for 1 hour. Secondary antibody was removed and plates were washed seven times with 200 μl/well PBST (1×PBS with 0.05% tween-20) each time. 50 μl/well TMB (eBioscience #85-00-4201-56, www.ebioscience.com) was added and plates were incubated at room temperature for several minutes. Then 50 μl/well 2N H₂SO₄ was added to stop the reaction. Plates were read at 450 nm.

human IL-17C = target: T2, human IL-17C (human, UniProt Q9P0M4 19-197); assay: ELISA (FIG. 4)
T2 sequence (looked up): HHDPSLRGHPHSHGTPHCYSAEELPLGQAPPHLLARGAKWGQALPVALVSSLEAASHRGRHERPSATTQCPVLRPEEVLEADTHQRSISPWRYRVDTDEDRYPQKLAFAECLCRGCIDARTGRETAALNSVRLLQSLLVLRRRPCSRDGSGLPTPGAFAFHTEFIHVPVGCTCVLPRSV
Experimental: as §1

cynomolgus IL-25 = target: T3, cynomolgus IL-25 (cynomolgus, UniProt G7P9V9 33-176); assay: ELISA, plate coated with cynomolgus IL-25 (cynoIL25-his), OD450, Example 7 [panel cynoIL25-his]
T3 construct: In-house production
T3 sequence: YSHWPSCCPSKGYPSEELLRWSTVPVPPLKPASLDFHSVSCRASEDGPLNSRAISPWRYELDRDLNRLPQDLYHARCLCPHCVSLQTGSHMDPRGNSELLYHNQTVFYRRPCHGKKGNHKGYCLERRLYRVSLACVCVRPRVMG

mouse IL-25 = target: T4, mouse IL-25 (mouse, UniProt Q8VHH8 17-169, limits assumed); assay: ELISA, plate coated with mouse IL-25, OD450, Example 7; unit from the axis lg(nM) [panel Mouse IL-25]
T4 construct: In-house production
T4 sequence (looked up): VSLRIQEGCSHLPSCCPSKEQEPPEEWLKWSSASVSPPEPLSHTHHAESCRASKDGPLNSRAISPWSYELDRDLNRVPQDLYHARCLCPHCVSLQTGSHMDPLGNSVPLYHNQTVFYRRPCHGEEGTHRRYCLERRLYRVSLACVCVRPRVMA

human IL-25 [1] = target: T5, human IL-25 (human, UniProt Q9H293 33-177); assay: ELISA, plate coated with human IL-25 (hIl25-HIS), OD450, Example 4; unit from the axis lg(nM) and paragraph 95
T5 construct: ELISA used bought R&D systems #1258-IL-025/CF; Treated as one molecule; also called IL-17E; human IL-17E
T5 sequence (looked up): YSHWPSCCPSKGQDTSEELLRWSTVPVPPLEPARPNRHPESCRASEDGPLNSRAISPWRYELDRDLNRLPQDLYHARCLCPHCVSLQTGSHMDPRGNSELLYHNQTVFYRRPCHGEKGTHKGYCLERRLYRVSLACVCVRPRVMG
Experimental: MaxiSorp 96-well plates (NUNC #449824, www.thermofisher.com) were coated with 2 μg/ml human IL-25 (R&D systems #1258-IL-025/CF) in 1×PBS (50 μl/well). Plates were incubated at 4° C. overnight. Coating solution was removed and plates were washed once with 200 μl/well PBST (1×PBS with 0.05% tween-20). Then 200 μl/well blocking buffer (1×PBS with 0.05% tween-20, 3% BSA) were added and incubated at room temperature for 1 hour. Blocking buffer was removed and plates were washed three times with 200 μl/well PBST (1×PBS with 0.05% tween-20). Anti-IL-25 antibodies (produced in Example 2) were diluted to 10, 3.33, 1.11, 0.37, 0.123, 0.041, 0.0137, 0.0046, 0.0015, 0.00031, 0.000102, 0.000034 μg/ml by 1×PBS and added to plates (50 μl/well). Plates were incubated at room temperature for 2 hours. Antibodies in the wells were removed and plates were washed three times with 200 μl/well PBST (1×PBS with 0.05% tween-20). Goat anti-human IgG (H&L)-HRP secondary antibody (Jackson Immuno Research #109-035-088, www.jacksonimmuno.com) was diluted 1:5000 in 1×PBS and added to each well (50 μl/well). Plates were incubated at room temperature for 1 hour. Secondary antibody was removed and plates were washed seven times with 200 μl/well PBST (1×PBS with 0.05% tween-20) each time. 50 μl/well TMB (eBioscience #85-00-4201-56, www.ebioscience.com) was added and plates were incubated at room temperature for several minutes. Then 50 μl/well 2N H₂SO₄ was added to stop the reaction. Optical density was measured at 450 nm in relation to human IL-25 binding.

human IL-25 [2] = target: T5, human IL-25; assay: cell-based or functional assay

binding result (human IL-17B): no binding
binding result (human IL-17C): no binding
EC50 (cynomolgus IL-25): 2.35 nM
EC50 (mouse IL-25): 0.329 nM
EC50 (human IL-25 [1]): 0.187 nM
B1: murine anti-IL-25 monoclonal antibody 18H3 (antibody, V domains shown)
VH: QVTLKESGPGILQPSQTLSLTCSFSGFSLSTSGMGLGWIRQPSGKGLEWLAHIWWDDVKHYKPALKSRLTISKDISSSQVFLTIASVDTADTATYYCARMGQLHYYGYDYAMDYWGQGTSVTVSS
VL: QIVLTQSPAIMSASPGEKVTISCSASSSVSYMYWYQQKPGSSPKPWIYRTSNLASGVPARFSGSGSGTSYSLTISSMEAEDAATYYCQLYHSYPPTWTFGGGTKLEIK
notes: also called parental antibody; parental murine mAb

IC50, CXCL1/GROalpha production of HT-29 cells stimulated by human IL-25 [A] (human IL-25 [2]): 7.23 nM
EC50 (cynomolgus IL-25): 1.51 nM
EC50 (mouse IL-25): 0.153 nM
EC50 (human IL-25 [1]): 0.154 nM
B2: VH1-1 + VL2-1 (humanized anti-IL-25 antibody formed by VH1-1 and VL2-1) (antibody, V domains shown)
VH: QVTLKESGPTLVKPTQTLTLTCTFSGFSLSTSGMGLGWIRQPPGKALEWLAHIWWDDVKHYKPALKSRLTITKDTSKNQVVLTMTNVDPVDTATYYCARMGQLHYYGYDYAMDYWGQGTLVTVSS
VL: DIQLTQSPSFLSASVGDRVTITCSASSSVSYMYWYQQKPGKAPKPLIYRTSNLASGVPSRFSGSGSGTEYTLTISSMQPEDFATYYCQLYHSYPPTWTFGQGTKLEIK

EC50 (cynomolgus IL-25): 1.12 nM
EC50 (mouse IL-25): 0.231 nM
EC50 (human IL-25 [1]): 0.196 nM
B3: VH2-1 + VL1-2 (humanized anti-IL-25 antibody formed by VH2-1 and VL1-2) (antibody, V domains shown)
VH: B2 VH with K5R, T10A, V12L, T72S, M84I
VL: EIVLTQSPATLSASPGERVTISCSASSSVSYMYWYQQKPGQAPRPLIYRTSNLASGVPARFSGSGSGTDYTLTISSMEPEDFATYYCQLYHSYPPTWTFGQGTKLEIK

EC50 (mouse IL-25): 0.244 nM
EC50 (human IL-25 [1]): 0.187 nM
B4: VH2-1 + VL2-1 (humanized anti-IL-25 antibody formed by VH2-1 and VL2-1) (antibody, V domains shown)
VH: B2 VH with K5R, T10A, V12L, T72S, M84I
VL: B2 VL

IC50, CXCL1/GROalpha production of HT-29 cells stimulated by human IL-25 [A] (human IL-25 [2]): 11.4 nM
EC50 (mouse IL-25): 0.242 nM
EC50 (human IL-25 [1]): 0.252 nM
B5: VH1-1 + VL1-2 (humanized anti-IL-25 antibody formed by VH1-1 and VL1-2) (antibody, V domains shown)
VH: B2 VH
VL: B3 VL
notes: Captured by anti-human Fc gamma antibody in SPR
